In US5705355A, “Hirudin, pharmaceutical compositions comprising it and their use” (Transgene, S.A., priority 1984, dated 1998):
Like-named read-outs stand apart in the source and are kept apart here.

Tests used:
thrombin [1] = target: T1, thrombin (Homo sapiens, UniProt P00734); conditions: cited from earlier work
mice = conditions: cited from earlier work
[2] = tested on: rats, dogs, rabbits and mice; conditions: in vivo, iv; cited from earlier work
rabbits = conditions: intravenously and subcutaneously; cited from earlier work
[3] = heat / acid-heat treatment (70° C., pH 2.8, 15 min), antithrombin activity afterwards; type: physicochemical
Experimental: In order to characterize the hirudin obtained from E. coli, analysis was performed directly on culture samples after induction, which were heated to 70° C. for 15 min or heated to 70° C. after reduction of the pH to 2.8 with HCl.
In the latter case, the pH of the extract was brought back to neutral before being assayed. […] This can reflect either the degradation or the inactivation of constituents of the extract which inhibited the action of hirudin, or possibly the rather low pH and the heating stage may, in some cases, provide for a more complete reforming of the disulfide bridges which are needed for hirudin to show maximum activity. […]
When the labeled materials from non-induced PTG718 cultures and from cultures at 3 and 5 hours after induction are treated at 70° C. and at pH 2.8 for 15 min, centrifuged to remove the denatured proteins and analyzed on an SDS-polyacrylamide gel, it is clear that the bulk of the labeled E. coli proteins are removed from the sample (FIG. 9-- lanes 1 and 2). […]
Another portion, is adjusted to pH 2.8 with dilute HCl, and then heated to 70° C. for 15 minutes. […] The supernatant is neutralized by adding dilute NaOH and the antithrombin activity is then measured. After the small modifications in volume due to the acidification and neutralization are taken into account, it can be calculated that 100% of the original activity survives this acid/heat treatment. […]

[4] = tested on: plasmin, chymotrypsin A, trypsin, papain, pepsin, subtilopeptidase A; conditions: cited from earlier work
DIC = conditions: rat, in vivo; cited from earlier work
[5] = in vivo; cited from earlier work
thrombin [6] = target: T1, thrombin; conditions: first estimate; read-out: dissociation constant of the 1:1 thrombin-hirudin complex; cited from earlier work

hirudin
specific activity (thrombin [1]; after further stages of purification): 10,400 U/mg
specific activity (thrombin [1]; hirudin extracted from whole leeches): 6,500 anti-thrombin units per milligram
specific activity (thrombin [1]; purified approximately 650 times from heads of leeches): 8,500 units per milligram
activity relative to the initial hirudin activity (thrombin [1]; sulfate ester (Tyr 63) made to disappear completely): 55%
LD50 (mice): > 500,000 U/kg of body weight
tolerated dose (mice): up to 1 g per kg
sensitization reactions (mice; repeated injections over a period of two weeks): do not lead to sensitization reactions
LD50 (mice; same value expressed by weight): > 60 mg/kg
tolerance [2]: well tolerated
tolerated dose (rabbits): up to 10 mg/kg
resistance to heat treatment under conditions of quite low pH [3]: resistance to heat treatment
loss in activity after heat or acid/heat treatment ([3]; 70° C. for 15 min, or 70° C. after reduction of the pH to 2.8): no loss in activity
hirudin activity on digestion with chymotrypsin A ([4]; chymotrypsin A): resisted
hirudin activity on digestion with papain ([4]; papain): sensitive
hirudin activity on digestion with pepsin ([4]; pepsin): sensitive
hirudin activity on digestion with plasmin ([4]; plasmin): resisted
hirudin activity on digestion with subtilopeptidase A ([4]; subtilopeptidase A): sensitive
hirudin activity on digestion with trypsin ([4]; trypsin): resisted
treating DIC compared with heparin (DIC): far superior to heparin
elimination [5]: rapidly eliminated
Kd (thrombin [6]): 0.08 nM
